Square brackets hold non-standard residues; d marks the D form. Peptide text beside a SMILES is read from it. Nle = CCCC[C@H](N)C(=O)O
Experiments:
[1] = tested on: MDA-MB-231 human breast carcinoma; experiment: MTT assay, MDA-MB-231 cells
proteasome = details: Proc Natl Acad Sci USA 94:855-860, 1997; cited from earlier work
HL-60 tumor cells = details: proliferating HL-60 tumor cells; background art; cited from earlier work
[2] = tested on: DU-145 human prostate carcinoma; experiment: MTT assay, DU-145 cells
[3] = tested on: A-549 human lung carcinoma; experiment: MTT assay, A-549 cells
[4] = A-549 cells, 10 μM LLnL with 0.1 to 1.0 μg/mL ranpirnase

In the case of `CSCC[C@@H](C=O)NC(=O)[C@H](CC(C)C)NC(=O)[C@H](CC(C)C)NC(C)=O` [LLM, N-acetyl-leucinyl-leucinyl-methioninal, reference compound] (Ac-Leu-Leu-Met-aldehyde), the “effect on growth and viability versus untreated controls” value ([1]; MDA-MB-231 cells, 25 μM LLM alone) is given as “no significant effect” and the “inhibition of the activity of proteasome” value (proteasome) is given as “does not significantly inhibit”.

With `COc1cccc2c1C(=O)c1c(O)c3c(c(O)c1C2=O)C[C@@](O)(C(=O)CO)C[C@@H]3O[C@H]1C[C@H](N)[C@H](O)[C@H](C)O1` [doxorubicin, reference compound] the “effect of adding doxorubicin on cell growth or cell viability” value ([1]; MDA-MB-231 cells, ranpirnase plus 0.1 μg/mL doxorubicin plus 15 μM LLnL versus ranpirnase plus LLnL) was “did not significantly decrease”.

For `CCCC[C@@H](C=O)NC(=O)[C@H](CC(C)C)NC(=O)[C@H](CC(C)C)NC(C)=O` [LLnL, N-acetyl-leucinyl-leucinyl-norleucinal] (Ac-Leu-Leu-[Nle]-aldehyde), the cell cycle arrest (HL-60 tumor cells) is given as “arrested the HL-60 cells in the G1 phase”.

For `CC(=O)N[C@@H](CC(=O)O)C(=O)N[C@@H](CCC(=O)O)C(=O)N[C@H](C(=O)N[C@H](C=O)CC(=O)O)C(C)C` [Ac-DEVD-cho, N-acetyl-L-aspartyl-L-glutamyl-L-valinyl-L-aspartal, reference compound], the “increase of viability of cells versus LLnL alone” value ([2]; DU-145 cells treated with LLnL, without ranpirnase, Ac-DEVD-cho 50 μpM) was “approximately 4 fold” and the “increase of viability of cells” value ([2]; DU-145 cells treated with ranpirnase and 25 μpM LLnL, Ac-DEVD-cho 50 μpM) was 2- to 3 fold.

With `CC(=O)N[C@@H](CC(C)C)C(=O)N[C@H](C(=O)N[C@H](C=O)Cc1ccccc1)C(C)C` [LVP, N-acetyl-leucinyl-valinyl-phenylalaninal, reference compound] the “augmentation of the anti-tumor activity of ranpirnase” value ([2]; DU-145 cell line, peptide aldehyde added to ranpirnase) was “augmented” and the “augmentation of the anti-tumor activity of ranpirnase” value ([3]; A-549 cell line, peptide aldehyde added to ranpirnase) was “augmented”.

B1: ranpirnase: USAN generic name of the pharmaceutical described in U.S. Pat. No. 5,559,212, known by the registered trademark ONCONASE (protein, UniProt P22069 1-104, looked up)
Protein P-30: QDWLTFQKKHITNTRDVDCDNIMSTNLFHCKDKNTFIYSRPEPVKAICKGIIASKNVLTTSEFYLSDCNVTSRPCKYKLKKSTNKFCVTCENQAPVHFVGVGSC
For B1, the “interaction of ranpirnase and LLnL” value ([2]; DU-145 cell line) was “synergistically”, the “anti-tumor activity of ranpirnase combined with LLnL versus each single agent (Newman-Keuls)” value ([2]; DU-145 cells) was “significantly greater” and the “interaction of ranpirnase with LLnL” value ([2]; DU-145 cells, all concentrations of ranpirnase, 10 to 25 μM LLnL) was “synergistic”. The “ED50 value for ranpirnase” value ([2]; DU-145 cells, combined with 10 μM LLnL) was 1.231 µg/mL, the “ED50 value for ranpirnase” value ([2]; DU-145 cells, combined with 15 μM LLnL) was 0.001 µg/mL and the “ED50 value for ranpirnase” value ([2]; DU-145 cells, combined with 25 μM LLnL) was under 0.001 µg/mL. The “ED50 value for ranpirnase” value ([2]; DU-145 cells, ranpirnase alone) was 42.276 µg/mL, the “interaction of ranpirnase and LLnL” value ([1]; MDA-MB-231 cell line) was “synergistically” and the “anti-tumor activity of ranpirnase combined with LLnL versus each single agent (Newman-Keuls)” value ([1]; MDA-MB-231 cells) was “significantly greater”. For the same molecule, the “activity of combination of ranpirnase and LLM versus ranpirnase alone” value ([1]; MDA-MB-231 cells, 25 μM LLM) was “no significant difference”, the “decrease of mean ED50 value for ranpirnase” value ([1]; MDA-MB-231 cells, additional treatment with 25 μM LLM) was “approximately two-fold” and the “decrease of mean ED50 value for ranpirnase versus ranpirnase alone” value ([1]; MDA-MB-231 cells, in combination with 0.1 μg/mL (approximately 0.17 μM) doxorubicin) was 2.2 fold. The “mean ED50 value for ranpirnase” value ([1]; MDA-MB-231 cells, in combination with 10 μM LLnL) was 0.037 µg/mL, the “mean ED50 value for ranpirnase” value ([1]; MDA-MB-231 cells, in combination with 15 μM LLnL) was 0.022 µg/mL and the “mean ED50 value for ranpirnase” value ([1]; MDA-MB-231 cells, in combination with 25 μM LLnL) was 0.001 µg/mL. For the same molecule, the “interaction of ranpirnase with LLnL” value ([1]; MDA-MB-231 cells, ranpirnase 0.1 to 10.0 μg/mL, LLnL 5 to 25 μM (particularly 10 to 25 μM)) was “synergistically”, the “mean ED50 value for ranpirnase” value ([1]; MDA-MB-231 cells, ranpirnase alone) was 1.434 µg/mL and the “interaction of ranpirnase and LLnL” value ([3]; A-549 cell line) was “synergistically”. For the same molecule, the “anti-tumor activity of ranpirnase combined with LLnL versus each single agent (Newman-Keuls)” value ([3]; A-549 cells) was “significantly greater”, the “effect of the combination versus ranpirnase alone” value [3, 4] was “greater than the effect of ranpirnase alone” and the “interaction of ranpirnase and LLnL” value [3, 4] was “not synergistic”. For the same molecule, the “interaction of ranpirnase and LLnL” value ([3]; A-549 cells, higher concentrations (15 to 35) μM of LLnL) was “synergistic”, the “mean ED50 value for ranpirnase” value ([3]; A-549 cells, in combination with 10 μM LLnL) was 1.356 µg/mL and the “mean ED50 value for ranpirnase” value ([3]; A-549 cells, in combination with 15 μM LLnL) was 0.640 µg/mL. For the same molecule, the “mean ED50 value for ranpirnase” value ([3]; A-549 cells, in combination with 25 μM LLnL) was 0.060 µg/mL, the “mean ED50 value for ranpirnase” value ([3]; A-549 cells, in combination with 35 μM LLnL) was “less than 0.001 μg/mL” and the “mean ED50 value for ranpirnase” value ([3]; A-549 cells, ranpirnase alone) was 3.944 µg/mL.

From patent US6290951A, “Alteration of the cell cycle in vivo, and particularly for inducing apoptosis of tumor cells” (Alfacell Corporation, priority 1998, dated 2001)
